Measured values published in patent publication US20230049752A1 (University of California, published 2023).
Each block holds one binder with its values, some of them ahead of it.

Legend:
[1] = target: human Claudin-6 (CLDN6) (human) (UniProt P56747); assay: flow cytometry, UMUC4 cells (positive cell line); 2nd Ab only 1,114.73
[2] = target: human Claudin-6 (CLDN6) (human) (UniProt P56747); assay: KinExA, HEK293T CLDN6-mGFP A11 cells detached by Versene, equilibrium curves 500pM, 10nM; printed 95% CI 3.41nM - 14.99nM
[3] = target: human Claudin-6 (CLDN6) (human) (UniProt P56747); assay: KinExA, HEK293T CLDN6-mGFP A11 cells detached by Versene, equilibrium curves 500pM, 10nM; printed 95% CI 1.05nM - 3.38nM
[4] = target: human Claudin-6 (CLDN6) (human) (UniProt P56747); assay: flow cytometry, HEK293T CLDN6-mGFP A11 cells (positive artificial OE cell line); 2nd Ab only 1,242.89
[5] = target: human Claudin-6 (CLDN6) (human) (UniProt P56747); assay: KinExA, HEK293T CLDN6-mGFP A11 cells detached by Versene, equilibrium curves 500pM, 10nM; printed 95% CI 2.10nM - 5.42nM
[6] = target: human Claudin-6 (CLDN6) (human) (UniProt P56747); assay: KinExA, HEK293T CLDN6-mGFP A11 cells detached by Versene, equilibrium curves 500pM, 10nM; printed 95% CI 1.46nM - 6.47nM
[7] = target: human Claudin-6 (CLDN6) (human) (UniProt P56747); assay: KinExA, HEK293T CLDN6-mGFP A11 cells detached by Versene, equilibrium curves 500pM, 10nM; printed 95% CI 1.49nM - 17.05nM
[8] = target: human Claudin-6 (CLDN6) (human) (UniProt P56747); assay: KinExA, HEK293T CLDN6-mGFP A11 cells detached by Versene, equilibrium curves 500pM, 10nM; printed 95% CI 1.07nM - 7.74nM
[9] = target: human Claudin-6 (CLDN6) (human) (UniProt P56747); assay: KinExA, HEK293T CLDN6-mGFP A11 cells detached by Versene, equilibrium curves 500pM, 10nM; printed 95% CI 0.56nM - 1.66nM
[10] = target: human Claudin-6 (CLDN6) (human) (UniProt P56747); assay: FACS, limiting dilution, OV90 cells
[11] = target: human Claudin-6 (CLDN6) (human) (UniProt P56747); assay: FACS, 1.5 ug Ab, 293T clone expressing human CLDN6 (2nd Ab only 768.07)
mouse Claudin-6 (CLDN6) = target: T1, mouse Claudin-6 (CLDN6) (mouse, UniProt Q9Z262 1-219); assay: FACS, 293T clone expressing mouse CLDN6, dose not stated (2nd Ab only 1061.72)
T1 construct: whole, on cells; GFP fusion on engineered HEK293T cells; also called Mouse CLDN6; murine CLDN6
T1 sequence (looked up): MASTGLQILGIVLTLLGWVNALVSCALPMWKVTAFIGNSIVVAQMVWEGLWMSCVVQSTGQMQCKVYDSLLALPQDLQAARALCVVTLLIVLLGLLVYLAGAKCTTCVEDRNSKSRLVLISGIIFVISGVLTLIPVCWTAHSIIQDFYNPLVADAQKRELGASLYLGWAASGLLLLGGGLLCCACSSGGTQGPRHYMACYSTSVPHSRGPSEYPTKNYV
Protocol: Two doses (1.5 μg or 0.3 μg) of the humanized antibodies were tested for binding to either human CLDN6 or murine CLDN6 which proteins were expressed by engineered 293T clones.

[12] = target: human Claudin-6 (CLDN6) (human) (UniProt P56747); assay: KinExA, HEK293T CLDN6-mGFP A11 cells detached by Versene, equilibrium curves 500pM, 10nM; printed 95% CI 0.53nM - 2.03nM
[13] = target: human Claudin-6 (CLDN6) (human) (UniProt P56747); assay: FACS, 1.5 ug Ab, ARK2 cells (2nd Ab only 1351.21)
[14] = target: human Claudin-6 (CLDN6) (human) (UniProt P56747); assay: FACS, limiting dilution, ARK2 cells
[15] = target: human Claudin-6 (CLDN6) (human) (UniProt P56747); assay: FACS, limiting dilution, UMUC4 cells
[16] = target: human Claudin-6 (CLDN6) (human) (UniProt P56747); assay: FACS, 0.3 ug Ab, 293T clone expressing human CLDN6 (2nd Ab only 768.07)
[17] = target: human Claudin-6 (CLDN6) (human) (UniProt P56747); assay: FACS, 0.3 ug Ab, ARK2 cells (2nd Ab only 1351.21)

flow cytometry signal at 1µg Ab/Sample [1]: 28800
Kd [2]: 6.68 nM
B1: CLDN6 ADC: AB3-7 conjugated to MC-VC-PAB-MMAE (conventional) (antibody, V domains shown)
VH: EVQLLESGGGLVQPGGSMRLSCAASGFTFSNYWMNWVRQAPGKGLEWVAQIRLKSDNYATHYADSVKGRFTISRDDSKNTVYLQMNSLRAEDTGVYYCNDGPPSGSWGQGTLLTVSS
VL: DIQMTQSPSSLSASVGDRVTITCRISENIYSYLAWYQQKPGKAPKLLVYNAKILVEGVPSRFSGSGSGTDFTLTISSLQPEDFGTYYCQHHYTVPWTFGQGTKLEIK
modifications: antibody conjugated to MC-VC-PAB-MMAE, heterogeneous drug load; attachment residues not stated

flow cytometry signal at 0.1µg Ab/Sample [4]: 110000
Kd [5]: 3.42 nM
flow cytometry signal at 0.1µg Ab/Sample [1]: 10800
flow cytometry signal at 1µg Ab/Sample [1]: 32600
B3: CLDN6 ADC: AB3-7 conjugated to MC-VC-PAB-DXD (antibody, V domains shown)
VH: B1 VH
VL: B1 VL
modifications: antibody conjugated to MC-VC-PAB-DXD; attachment residues not stated

Kd [7]: 5.34 nM
flow cytometry signal at 0.1µg Ab/Sample [1]: 9450
flow cytometry signal at 1µg Ab/Sample [1]: 26900
B5: CLDN6 ADC: AB3-7 conjugated to MC-VC-PAB-MMAE (D4 technology) (antibody, V domains shown)
VH: B1 VH
VL: B1 VL
modifications: antibody conjugated to MC-VC-PAB-MMAE, mostly 4 drugs per antibody; attachment residues not stated

Kd [9]: 1.01 nM
flow cytometry signal at 0.1µg Ab/Sample [1]: 8790
flow cytometry signal at 1µg Ab/Sample [1]: 31600
B7: CLDN6 ADC: AB3-7 conjugated to MC-GGFG-MMAE (D4 technology) (antibody, V domains shown)
VH: B1 VH
VL: B1 VL
modifications: antibody conjugated to MC-GGFG-MMAE, mostly 4 drugs per antibody; attachment residues not stated

More lines, now with the values behind:

B2: CLDN6 ADC: AB3-7 conjugated to CL2A-SN38 (conventional) (antibody, V domains shown)
VH: B1 VH
VL: B1 VL
modifications: antibody conjugated to CL2A-SN38, heterogeneous drug load; attachment residues not stated
Kd [3]: 1.91 nM
flow cytometry signal at 0.1µg Ab/Sample [1]: 9990
flow cytometry signal at 1µg Ab/Sample [1]: 33800

B4: CLDN6 ADC: AB3-7 conjugated to MC-GGFG-DXD (antibody, V domains shown)
VH: B1 VH
VL: B1 VL
modifications: antibody conjugated to MC-GGFG-DXD; attachment residues not stated
flow cytometry signal at 0.1µg Ab/Sample [4]: 121000
flow cytometry signal at 0.1µg Ab/Sample [1]: 10500
flow cytometry signal at 1µg Ab/Sample [1]: 32800
Kd [6]: 3.01 nM

B6: CLDN6 ADC: AB3-7 conjugated to CL2A-SN38 (D4 technology) (antibody, V domains shown)
VH: B1 VH
VL: B1 VL
modifications: antibody conjugated to CL2A-SN38, mostly 4 drugs per antibody; attachment residues not stated
flow cytometry signal at 0.1µg Ab/Sample [1]: 9140
flow cytometry signal at 1µg Ab/Sample [1]: 34600
Kd [8]: 2.87 nM

B8: AB3-7 (antibody, V domains shown)
VH: B1 VH
VL: B1 VL
notes: humanized; also called AB23; humanized AB3-7
flow cytometry signal at 0.1µg Ab/Sample [4]: 107000
FACS signal at 0.32 nM [10]: 393
FACS signal at 1.6 nM [10]: 567
FACS signal at 8 nM [10]: 565
FACS signal at 40 nM [10]: 1140
FACS signal at 200 nM [10]: 2330
FACS signal at 1000 nM [10]: 9390
FACS fluorescence [11]: 169000
FACS fluorescence (mouse Claudin-6 (CLDN6)): 56100
Kd [12]: 1.13 nM
flow cytometry signal at 0.1µg Ab/Sample [1]: 8820
flow cytometry signal at 1µg Ab/Sample [1]: 27300
FACS fluorescence [13]: 90400
FACS signal at 0.32 nM [14]: 402
FACS signal at 1.6 nM [14]: 537
FACS signal at 8 nM [14]: 991
FACS signal at 40 nM [14]: 1640
FACS signal at 200 nM [14]: 3060
FACS signal at 1000 nM [14]: 11400
FACS signal at 0.32 nM [15]: 604
FACS signal at 1.6 nM [15]: 570
FACS signal at 8 nM [15]: 724
FACS signal at 40 nM [15]: 1120
FACS signal at 200 nM [15]: 2110
FACS signal at 1000 nM [15]: 9840
FACS fluorescence [16]: 106000
FACS fluorescence [17]: 36000
